Patent US7919091B2, “Lipolysis stimulated receptor (LSR) specific antibodies” (Serono Genetics Institute S.A., priority 1997, dated 2011)

How the values were obtained:
[1] = Clearance of 125I-leptin in mice; type: in vivo
Experimental: The female control, ob/ob, or db/db mice (6-8 weeks), on an empty stomach, are anaesthetized and receive via the saphenous vein an injection of 80 ng of murine recombinant ^125I-leptin or of ^125I-β2-microglobulin (Sigma, labelled by the Iodobeads method, like leptin). Five minutes later, the animals are infused with a physiological saline solution (15 ml, at 4° C.). The tissues are collected and counted for their radioactivity (Gamma counter). In some cases, an anti-LSR antibody or a control protein are injected 30 minutes after injection of ^125I-leptin. It is important to note that the labelling of leptin with ^125I has no effect on its biological activity.

[2] = target: T1, LSR (Homo sapiens, UniProt Q86X29); test: Effect of leptin on the LSR activity of human fibroblasts HF; type: cell-based; conditions: incubation with increasing leptin, 50 μg/ml 125I-LDL, 500 μM oleate
T1 construct: GM00486A, GM007001B, GM00488C; host or cells: human skin fibroblasts, normal or HF (familial hypercholesterolemia, LDL-receptor deficient)
T1 sequence (Q86X29 1-649) 1: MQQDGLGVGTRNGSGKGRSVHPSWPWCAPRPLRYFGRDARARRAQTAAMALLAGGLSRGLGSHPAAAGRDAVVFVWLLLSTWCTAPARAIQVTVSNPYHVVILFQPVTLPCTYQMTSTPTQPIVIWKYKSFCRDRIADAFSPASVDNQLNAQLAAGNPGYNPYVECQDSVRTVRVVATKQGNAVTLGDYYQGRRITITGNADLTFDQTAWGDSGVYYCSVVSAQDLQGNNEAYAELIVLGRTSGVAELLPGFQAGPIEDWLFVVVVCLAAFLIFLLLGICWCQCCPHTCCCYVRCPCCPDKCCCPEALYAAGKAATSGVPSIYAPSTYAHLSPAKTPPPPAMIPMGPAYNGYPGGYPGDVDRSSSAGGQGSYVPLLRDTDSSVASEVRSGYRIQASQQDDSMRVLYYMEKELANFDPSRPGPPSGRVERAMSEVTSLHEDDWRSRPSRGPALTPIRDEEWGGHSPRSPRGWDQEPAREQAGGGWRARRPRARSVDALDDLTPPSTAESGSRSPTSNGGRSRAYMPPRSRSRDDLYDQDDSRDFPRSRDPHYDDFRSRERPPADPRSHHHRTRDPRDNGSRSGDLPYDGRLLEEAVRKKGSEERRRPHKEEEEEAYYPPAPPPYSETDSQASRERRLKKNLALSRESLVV
T1 sequence (Q86X29 1-649) 2: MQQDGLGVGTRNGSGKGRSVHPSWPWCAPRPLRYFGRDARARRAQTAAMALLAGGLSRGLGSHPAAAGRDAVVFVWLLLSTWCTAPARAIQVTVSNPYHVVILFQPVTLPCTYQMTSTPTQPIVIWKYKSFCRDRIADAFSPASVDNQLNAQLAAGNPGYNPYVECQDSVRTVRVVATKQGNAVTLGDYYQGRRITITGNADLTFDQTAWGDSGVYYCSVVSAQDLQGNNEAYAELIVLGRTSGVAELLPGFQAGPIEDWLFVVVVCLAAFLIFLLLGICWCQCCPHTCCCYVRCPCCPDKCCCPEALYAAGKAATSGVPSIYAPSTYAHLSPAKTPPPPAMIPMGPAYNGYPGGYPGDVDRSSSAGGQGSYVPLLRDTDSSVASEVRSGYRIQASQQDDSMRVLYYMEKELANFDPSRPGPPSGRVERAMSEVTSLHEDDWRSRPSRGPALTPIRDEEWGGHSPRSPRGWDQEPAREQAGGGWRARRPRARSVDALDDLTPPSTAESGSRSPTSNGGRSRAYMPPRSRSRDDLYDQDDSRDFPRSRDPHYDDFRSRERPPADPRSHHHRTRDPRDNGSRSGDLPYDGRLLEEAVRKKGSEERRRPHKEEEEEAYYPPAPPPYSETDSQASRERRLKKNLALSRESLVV
Experimental: The fibroblasts HF are incubated for 30 minutes at 37° C. with increasing concentrations of leptin, and then for 2 hours at 37° C. with 50 μg/ml of ^125I-LDL, in the presence of 500 μM oleate. The binding, internalization and degradation of the LDLs are measured as indicated in Example 1.

[3] = test system: LSR receptors; test: Long-term treatment with leptin on ob/ob mice: LSR receptor number and LSR mRNA; type: in vivo
Experimental: The ob/ob obese mice received a daily injection of either leptin, or of an equivalent volume of sterile PBS, for 30 days. The injected doses are 50 μg/animal from day 0 to day 4, 100 μg/animal from day 5 to day 17, and 150 μg/animal from day 18 to day 30. Several parameters indicated below are measured: • the weight (FIG. 29 A): the change in weight is measured for 6 animals, over the duration of the treatment; • the postprandial lipemic response (FIG. 29 B): it is measured according to the protocol detailed in Example 5 on three animals in each group, on day 29; • the apparent number of LSR receptors (FIG. 29 C): it is measured according to the protocol detailed in Example 4 on three animals in each group, on day 30; • the quantity of LSR mRNA ([…]): it is estimated by Northern blotting as indicated in the protocol of Example 2.

LSR activity of human fibroblasts HF [2]: increased
quantity of mRNA encoding the subunits of the LSR receptor ([3]; leptin 30 days, Northern blotting of liver RNA): increase
B1: leptin: mouse recombinant leptin with hexahistidine end, expressed in E. coli (protein, UniProt P41160 22-167, looked up)
Leptin: VPIQKVQDDTKTLIKTIVTRINDISHTQSVSAKQRVTGLDFIPGLHPILSLSKMDQTLAVYQQVLTSLPSQNVLQIANDLENLRDLLHLLAFSKSCSLPQTSGLQKPESLDGVLEASLYSTEVVALSRLQGSLQDILQQLDVSPEC
modifications: hexahistidine tag
notes: mouse recombinant leptin with hexahistidine end, expressed in E. coli
renal capture of leptin ([1]; between control, ob/ob and db/db lines, 5 minutes after injection): no difference
quantity of leptin selectively captured by the liver ([1]; obese (ob/ob, db/db) mice compared with control mice, 5 minutes after injection): reduced
speed of clearance ([1]; radiolabelled recombinant leptin, obese and control mice): rapid speed of clearance
injected dose found in liver and kidney ([1]; radiolabelled recombinant leptin, obese and control mice, after 10 minutes): 50%
apparent number of LSR receptors at the surface of the cells ([3]; day 30 of leptin treatment): increase
